The results in this text go back to US20220119513A1 (ZOETIS SERVICES, published 2022).

Numbering of substitutions follows the chain as printed. Numbers in names are those of the source.

T1: canine TGFβ3 (canine, UniProt A0A8I3S1P1 346-457)
T1 sequence: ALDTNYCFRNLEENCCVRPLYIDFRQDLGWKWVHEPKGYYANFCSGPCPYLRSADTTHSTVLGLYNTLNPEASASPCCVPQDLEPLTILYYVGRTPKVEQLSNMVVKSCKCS

T2: canine TGFβ2 (canine, UniProt A0A8I3PZZ6 331-442)
T2 sequence: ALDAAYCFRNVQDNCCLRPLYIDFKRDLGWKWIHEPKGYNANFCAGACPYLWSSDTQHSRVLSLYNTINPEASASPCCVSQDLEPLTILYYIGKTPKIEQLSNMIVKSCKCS

T3: TGFβ3 (R&D Systems) (Homo sapiens (Human), UniProt P10600 301-412, Active TGFβ3 is a disulfide-linked homodimer of this chain; one copy is given.)
T3 construct: also called TGFB3
T3 sequence: T1 sequence

B1: Can04H09 VH3/VL4 (antibody, V domains shown)
VH: EVQLVQSAAEVKKPGASVKVSCKTSGYTFTSSWMNWVQQAPGAGLDWMGQIYPGDGDTNYNGKFKGRVTLTADTSTSTAYMELSSLRAEDTAVYYCARHYDGSTDYWGQGTLVTVSS
VL: EIVMTQSPASLSLSQGEKVTITCRASENIYSNLAWYQQRPGQAPKLLIYAATNLADGVPSRFSGSGSGTDFSLTISSLEPEDVAVYYCQHFWGTPYTFGQGTK
B2: Can04H09 VH1/VL3 (antibody, V domains shown)
VH: B1 VH with A8G, T30I, Q38R, E89G, T91I
VL: B1 VL with G16E, R39K, L73F
B3: Can04H09 VH2/VL4 (antibody, V domains shown)
VH: B1 VH with T28S, A43K, T74K, A88S, T91A
VL: B1 VL
B4: felHclb_heterochimera-14 (antibody, V domains shown)
VH: QVLLVQSGAEVRTPGASVKIFCKASGYIFITYYMHWVRQSPAQGLEWMGQIFPASGSTNYNEMFEGRLTLTADTSTNTAYMELSSLRSADTAMYYCARGDGNYALDAMDYWGQGTSVTVSS
VL: DIVLTQTPASLAVSLGQRATISCRASESVDSYGNSFMHWYQQKSGQPPKLLIYLASNLESGVPARFSGSGSRTDFTLTIDPVEADDAATYYCQQNNEDPLTFGAGTK
notes: hetero-pairing; also called felHclbH1-1x/mHclbVL
B5: felHclb_heterochimera-4 (antibody, V domains shown)
VH: B4 VH
VL: DIVMTQTPPSLSVSPRETASISCRASESVDSYGNSFMHWYLQKPGQSPQLLIYLASNLESGVSDRFSGSGSGTDFTLRISRVEANDTGVYYCQQNNEDPLTFGQ
notes: hetero-pairing
B6: felHclb_heterochimera-15 (antibody, V domains shown)
VH: QVLLVQSGAEVRKPGASVKIFCKASGYTFITYYMHWLRQAPEQGLEWMGRIFPASGSTSYAQKFQGRLTLTADTSTNTAYMELSSLRSADTAMYYCARGDGNYALDAMDYWGQGALVTVSS
VL: B4 VL
notes: hetero-pairing; also called felHclbH618s/mHclbVL
B7: felHclb_heterochimera-11 (antibody, V domains shown)
VH: B6 VH with K13R, T28I, E42A, L45F, R50S, N77D, M93V, Q113H, A115T, L116I
VL: B4 VL
notes: hetero-pairing; also called felHclbH636/mHclbVL
B8: felHclb_heterochimera-16 (antibody, V domains shown)
VH: B6 VH with R50Q, S59N, A61N, Q62E, K63M, Q65E
VL: B4 VL
notes: hetero-pairing; also called felHclbH618x/mHclbVL
B9: felHclb_heterochimera-13 (antibody, V domains shown)
VH: B4 VH with T13R, V37L, S40A, L45F, N77D, M93V, Q113H, S116I
VL: B4 VL
notes: hetero-pairing; also called felHclbH636x/mHclbVL
B10: felHclb_heterochimera-12 (antibody, V domains shown)
VH: B4 VH with Q50S, N59S, N61A, E62Q, M63K, E65Q
VL: B4 VL
notes: hetero-pairing; also called felHclbH1-1/mHclbVL
B11: felHclb_heterochimera-2 (antibody, V domains shown)
VH: B4 VH with Q50S, N59S, N61A, E62Q, M63K, E65Q
VL: B5 VL
notes: hetero-pairing
B12: felHclb_heterochimera-1 (antibody, V domains shown)
VH: B6 VH with K13R, T28I, E42A, L45F, R50S, N77D, M93V, Q113H, A115T, L116I
VL: B5 VL
notes: hetero-pairing
B13: felHclb_heterochimera-5 (antibody, V domains shown)
VH: B6 VH
VL: B5 VL
notes: hetero-pairing
B14: Can-SL501-VH3 Y111T / Can-SL501-VL2 (antibody, V domains shown)
VH: EVQLVESGGDLVKPGGSLRLSCVASGFTFSSYGMHWVRQAPGKELEWVAVISYDGSIKYYADAVKGRFTISRDNAKNTLYLQMNSLRAEDTAVYYCARTGEYSGYDTDPQTSWGQGTTVTVSS
VL: EIVMTQSPGSLAGSAGESVSINCRASQGIGDDLGWYQQKPGERPKLLIYGTSTLQSGVPARFSSSGSGTDFTLTINNLQAEDVGDYYCLQDSNYPLTFGAGTK
B15: Can-SL501-VH3 S112E / Can-SL501-VL2 (antibody, V domains shown)
VH: B14 VH with T111Y, S112E
VL: B14 VL
B16: Can-SL501-VH3 S112Q / Can-SL501-VL2 (antibody, V domains shown)
VH: B14 VH with T111Y, S112Q
VL: B14 VL
B17: Can-SL501-VH3 S112D / Can-SL501-VL2 (antibody, V domains shown)
VH: B14 VH with T111Y, S112D
VL: B14 VL
B18: Can-SL501-VH3 Y111E / Can-SL501-VL2 (antibody, V domains shown)
VH: B14 VH with T111E
VL: B14 VL
B19: mouse SL501 (antibody, V domains shown)
VH: B14 VH with D10G, L11V, K13Q, G16R, V23A, A63S, A75S, T111Y
VL: EIVLTQSPSSLSASVGDRVTITCRASQGIGDDLGWYQQKPGKAPILLIYGTSTLQSGVPSRFSGSGSGTDFTLTINSLQPEDFATYYCLQDSNYPLTFGGGTK
notes: called engineered mouse antibody and also precursor human antibody from phage display; also called mouse-SL501-VH/mouse-SL501-VL; SL501 (murine)
B20: Chimera-SL501-VH/Can-SL501-VL2 (antibody, V domains shown)
VH: B14 VH with D10G, L11V, K13Q, G16R, V23A, A63S, A75S, T111Y
VL: B14 VL
notes: also called heterochimeric SL501
B21: Chimera-SL501-VH/Can-SL501-VL1 (antibody, V domains shown)
VH: B14 VH with D10G, L11V, K13Q, G16R, V23A, A63S, A75S, T111Y
VL: EIVMTQSPASLSLSQEEKVTITCRASQGIGDDLGWYQQKPGQAPKLLIYGTSTLQSGVPSRFSGSGSGTDFSFTISSLEPEDVAVYYCLQDSNYPLTFGAGTK
notes: as for B20
B22: Can-SL501-VH1/Chimera-SL501-VL (antibody, V domains shown)
VH: B14 VH with E44G, E46Q, A61T, K76R, L79V, R98K, T111Y, T118L
VL: B19 VL
notes: as for B20
B23: Chimera-SL501-VH/CanSL501-VL-hybrid (antibody, V domains shown)
VH: B14 VH with D10G, L11V, K13Q, G16R, V23A, A63S, A75S, T111Y
VL: B19 VL with K42Q, I45K, T72S, L73F, N76S, Q79E, F83V, T85V
notes: constant regions not restated
B24: Can-SL501_VH1/CanSL501-VL-hybrid (antibody, V domains shown)
VH: B14 VH with E44G, E46Q, A61T, K76R, L79V, R98K, T111Y, T118L
VL: B19 VL with K42Q, I45K, T72S, L73F, N76S, Q79E, F83V, T85V
notes: constant regions not restated
B25: Can-SL501_VH2/Chimera-SL501-VL (antibody, V domains shown)
VH: B14 VH with E44G, E46Q, V93M, R98K, T111Y, T118L
VL: B19 VL
notes: as for B20

One may read the Kd as the constant that tells how readily two partners part at equilibrium. Low values mean tighter binding, high ones weaker binding.

In the first experiment the target is T1, canine TGFβ3. The experiment in a line: SPR, TGFβ on chip. From the text: (§1) To avoid affinity differences associated with differential surface preparation that can occur when immobilizing antibodies to surfaces, TGFβ1, TGFβ2, and TGFβ3 (R&D Systems) were directly conjugated to the individual surface. Immobilization was obtained by amine coupling […] using N-hydroxysuccinimide (NHS)/1-Ethyl-3-(3-dimethylaminopropyl) carbodiimide (EDC) chemistry. Chips were quenched with ethanolamine and the affinity with which all candidate mAbs bound to the immobilized TGFβ was evaluated. All curves were fit to a 1:1 model. Affinities <10⁻¹¹ are below the lower limit of quantitation of detection for the instrument.
Turning to B1, the Kd is 6.06 nM. With B2, the Kd stood at 6.52 nM.

With B3, the Kd worked out at 6.03 nM.

The target in a further experiment is canine TGFβ1 (canine, UniProt P54831 279-390, limits assumed). In words: SPR, TGFβ on chip.
Sequence of canine TGFβ1 (P54831 279-390 limits assumed): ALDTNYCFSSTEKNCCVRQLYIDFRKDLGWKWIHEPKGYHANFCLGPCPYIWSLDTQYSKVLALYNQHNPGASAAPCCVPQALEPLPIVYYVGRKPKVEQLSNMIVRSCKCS
Excerpt: as §1
In general terms: SPR reads the build-up and loss of mass on a sensor chip optically.
B1 returned a Kd of 1.38 nM.

On to B2, for which binding was put at a Kd of 2.43 nM. In turn, B3 returned a Kd of 1.42 nM.

A further experiment concerns the target T2, canine TGFβ2. In words: SPR, TGFβ on chip.
Excerpt: as §1
As to B1, the Kd is 32.1 nM. For the molecule B2, the Kd was 32 nM.

B3 yielded a Kd of 32.9 nM.

The target of another experiment is T3, TGFβ3 (R&D Systems). In words: SPR.
Consider B4, for which the binding result is reported as “no binding”. The same measure, in the same setting: next, B5: “no binding”.

B6: the binding result is listed as “no binding”. B7: the binding result is given as “no binding”.

Regarding B8, the binding result is given as “no binding”. The same measure, in the same setting: next, B9: “no binding”. As for B10, the binding result is reported as “no binding”. In the case of B11, the binding result is “no binding”. Still for that read-out and setting: next, B12: “no binding”; B13: “no binding”.

The target of a further experiment is TGFβ1 (R&D Systems). The experiment in a line: cell-based or functional assay.
Consider B1, for which the “CMVIC pSmad-3, IC50” value came out at 0.74 nM.

For the molecule B2, the “CMVIC pSmad-3, IC50” value was found to be 0.66 nM. Same read-out and setting: next, B3: 0.84 nM.

A further experiment concerns the target T3, TGFβ3 (R&D Systems). In words: cell-based or functional assay.
Turning to B1, the “CMVIC pSmad-3, IC50” value came to 52.8 nM. The same measure, in the same setting: next, B2: 467 nM. As to B3, the “CMVIC pSmad-3, IC50” value amounted to 69.5 nM.

A further experiment addresses TGFβ1 (R&D Systems). In words: cell-based or functional assay. This is another data set of the same source.
Take B14: the “CMVIC pSmad-3, IC50” value was 19.6 nM. The same measure, in the same setting: then B15, with 5.03 nM. Same read-out and setting: then B16, with 5.02 nM. The same measure, in the same setting: next, B17: 8.78 nM; B18: 46.9 nM.

In another experiment the target is T4, TGFβ1 (R&D Systems).
T4 construct: also called TGFB1
T4 sequence (P01137 279-390): as the sequence (P54831 279-390 limits assumed) above
The experiment in a line: SPR full titration.
The molecule B19 showed a Kd of 0.00705 nM. On the same count and under the same terms, next, B20: 0.000192 nM; B21: 60.8 nM; B22: 1100 nM.

As to B23, binding was put at a Kd of 0.0428 nM. Same read-out and setting: next, B24: 4.01 nM; B25: 1090 nM.

Another experiment concerns the target T4, TGFβ1 (R&D Systems). The experiment in a line: SPR full titration. This is another data set of the same source.
In turn, B14 returned an equilibrium dissociation constant (Kd) of 0.0235 nM. For B15, the Kd was determined as 0.0153 nM. B16 had a Kd of 0.00909 nM.

In the case of B17, binding was put at a Kd of 0.0196 nM. On the same count and under the same terms, then B18, with 0.0238 nM.

For the next experiment, the target named is T4, TGFβ1 (R&D Systems). The experiment in a line: single point SPR.
As to B14, the Kd is 0.457 nM.

In turn, B15 showed a Kd of 0.487 nM. In turn, B16 registered a Kd of 4.8 nM. The same measure, in the same setting: next, B17: 7 nM; B18: 4.98 nM.
